Among the data in the RNAGym collection of RNA variant scans (doi:10.7554/elife.80360) are self-cleavage values, retold here.

First the molecules themselves.
B1: HDV Ribozyme (parent)
chain: GGCCGGCAUGGUCCCAGCCUCCUCGCUGGCGCCGGCUGGGCAACAUUCCGAGGGGACCGUCCCCUCGGUAAUGGCGAAUGGGACCCA

The variants in the data set derive from B1. As to the kind of experiment: self-cleavage, relative activity (ratio to wild type); higher = more cleavage; co-transcriptional.
As for GGCCGGCAUGGUCCCAGCCUCCUCGCUGGCGCCGGCUGGGCAGCAUUCCGAGGGGACCGUCCCCUCGGUAAAGGCGAAUGGGACCCA, the self-cleavage was 0.453.
For the variant GGCCGGCAUGGUCCCAGCCUCCUCGCUGGCGCCGGCUGGGCAUCAUUCCGAGGGGACCGUCCCCUCGGUAAUUGCGAAUGGGACCCA, the self-cleavage is 0.141.
In the case of GGCCGGCAUGGUCCCAGCCUCCUCGCUGGCGCCGGCUGGGCAUCAUUCCGAGGGGACCGUCCCCGCGGUAAUGGCGAAUGGGACCCA, the self-cleavage is 0.302.
Consider GGCCGGCAUGGUCCCAGCCUCCUCGCUGGCGCCGGCUGGGCAUCAUUCCUAGGGGACCGUCCCCUCGGUAAUGGCGAAUGGGACCCA, for which the self-cleavage is 0.458.
As for GGCCGGCAUGGUCCCAGCCUCCUCGCUGGCGCCGGCUGGGCAUCAUUCCGAGGGGACCGUCCCCUCGGUAAUGGCGAAUGGGACACA, the self-cleavage amounted to 0.499.
For GGCCGGCAUGGUCCCAGCCUCCUCGCUGGCGCCGGCUGGGCAUCAUUCCGAGGGGACCGUCCCCUCGGUAAUGGCGAAUGGGACUCA, the self-cleavage was 0.658.
For GGCCGGCAUGGUCCCAGCCUCCUCGCUGGCGCCGGCUGGGCAAAAUUCCGAGGGGACCGUCCCCUCGGUAAUGGCGAAUGGGACCCG, the self-cleavage came to 0.649.
Consider GGCCGGCAUGGUCCCAGCCUCCUCGCUGGCGCCGGCUGGGCAUCAUUACGAGGGGACCGUCCCCUCGGUAAUGGCGAAUGGGACCCA, for which the self-cleavage came out at 0.424.
Under GGCCGGCAUGGUCCCAGCCUCCUCGCUGGCGCCGGCUGGGCAUCAUUCCGAGGGGACCGUCCCCUCGGUAAUGGCGAAGGGGACCCA stands 0.162; under GGCCGGCAUGGUCCCAGCCUCCUCGCUGGCGCCGGCUGGGCAUCAUUCCGAGGGGACCGUCCCCUCGGUAAUGGCGAAAGGGACCCA, 0.122.
Then GGCCGGCAUGGUCCCAGCCUCCUCGCUGGCGCCGGCUGGGCAUCCUUCCGAGGGGACCGUCCCCUCGGUAAUGGCGAAUGGGACCCA, with 0.877; and GGCCGGCAUGGUCCCAGCCUCCUCGCUGGCGCCGGCUGGGCAUCAUUCCGAGGGGACCGUCCCCUCGUUAAUGGCGAAUGGGACCCA, with 0.299.
On to GGCCGGCAUGGUCCCAGCCUCCUCGCUGGCGCCGGCUGGGCAAAAUUCCGAGGGGGCCGUCCCCUCGGUAAUGGCGAAUGGGACCCA, for which the self-cleavage worked out at 0.875.
Then GGCCGGCAUGGUCCCAGCCUCCUCGCUGGCGCCGGCUGGGCAUCAUUCCGAGGGGACCGUCCCCUCGGUAAUGGCGAAUGGGACCCU, with 0.425; and GGCCGGCAUGGUCCCAGCCUCCUCGCUGGCGCCGGCUGGGCAUCAUUCCGAGGGGACCGUCCCCUAGGUAAUGGCGAAUGGGACCCA, with 0.415; and GGCCGGCAUGGUCCCAGCCUCCUCGCUGGCGCCGGCUGGGCAAAAUUCCGAGGGGACCGUCCCCUCGGUAGUGGCGAAUGGGACCCA, with 0.427.
In the case of GGCCGGCAUGGUCCCAGCCUCCUCGCUGGCGCCGGCUGGGCAGCAUUCCGAGGGGACCGUCCCCUCGGUAAUGACGAAUGGGACCCA, the self-cleavage came to 0.724.
As for GGCCGGCAUGGUCCCAGCCUCCUCGCUGGCGCCGGCUGGGCAAAAUUCCGAGGGGACCGUCCCCUCGGUAAUGGCGACUGGGACCCA, the self-cleavage came to 0.0811.
As to GGCCGGCAUGGUCCCAGCCUCCUCGCUGGCGCCGGCUGGGCAUCAUUCCGAGGGGACCGUCCCCUCGGUAAUGGCGCAUGGGACCCA, the self-cleavage came out at 0.0519.
For GGCCGGCAUGGUCCCAGCCUCCUCGCUGGCGCCGGCUGGGCAUCAUUCCGAGGGGACCCUCCCCUCGGUAAUGGCGAAUGGGACCCA, the self-cleavage came out at 0.502.
In the case of GGCCGGCAUGGUCCCAGCCUCCUCGCUGGCGCCGGCUGGGCAGCAUUCCGAGGGGACCGUCCCCUCGGUAAUGGCGAAUGUGACCCA, the self-cleavage worked out at 0.138.
As to GGCCGGCAUGGUCCCAGCCUCCUCGCUGGCGCCGGCUGGGCAAAAUUACGAGGGGACCGUCCCCUCGGUAAUGGCGAAUGGGACCCA, the self-cleavage stood at 0.88.
In the case of GGCCGGCAUGGUCCCAGCCUCCUCGCUGGCGCCGGCUGGGCAUCAUUCCGAGGGGACCGUCCCCUCGGUAAUGGCGAAUGGGCCCCA, the self-cleavage is 0.0923.
Regarding GGCCGGCAUGGUCCCAGCCUCCUCGCUGGCGCCGGCUGGGCAUCAUUCCGAGGGGACCGUCCCCUCGGUAAUGGCGAAUGGGUCCCA, the self-cleavage was 0.125.
GGCCGGCAUGGUCCCAGCCUCCUCGCUGGCGCCGGCUGGGCAUCAUUCCGAGGGGACCGUCCCCUCGGUAAUGGGGAAUGGGACCCA: the self-cleavage was 0.0639.
For the variant GGCCGGCAUGGUCCCAGCCUCCUCGCUGGCGCCGGCUGGGCAAAAUUCCGAGGGGAUCGUCCCCUCGGUAAUGGCGAAUGGGACCCA, the self-cleavage came out at 0.582.
Under GGCCGGCAUGGUCCCAGCCUCCUCGCUGGCGCCGGCUGGGCAUCAUUCCGAGGGGAGCGUCCCCUCGGUAAUGGCGAAUGGGACCCA stands 0.674.
For the variant GGCCGGCAUGGUCCCAGCCUCCUCGCUGGCGCCGGCUGGGCAAAAUUCCGGGGGGACCGUCCCCUCGGUAAUGGCGAAUGGGACCCA, the self-cleavage turned out to be 0.898.
Then GGCCGGCAUGGUCCCAGCCUCCUCGCUGGCGCCGGCUGGGCAAAAUUCCGUGGGGACCGUCCCCUCGGUAAUGGCGAAUGGGACCCA, with 1.13.
Consider GGCCGGCAUGGUCCCAGCCUCCUCGCUGGCGCCGGCUGGGCAAAAUUCCGAGGGGACCGUCCCCUCGGUUAUGGCGAAUGGGACCCA, for which the self-cleavage turned out to be 0.571.
As for GGCCGGCAUGGUCCCAGCCUCCUCGCUGGCGCCGGCUGGGCAAAAUUCCGAGGGGACCGUCCCCUCGGUCAUGGCGAAUGGGACCCA, the self-cleavage is 0.465.
Under GGCCGGCAUGGUCCCAGCCUCCUCGCUGGCGCCGGCUGGGCAAAAUUCCGAGGGGACCGUCCCCUCGGUGAUGGCGAAUGGGACCCA stands 0.703.
Take GGCCGGCAUGGUCCCAGCCUCCUCGCUGGCGCCGGCUGGGCAUCAUUCCGAGGGGACCGUACCCUCGGUAAUGGCGAAUGGGACCCA: the self-cleavage stood at 0.532.
On to GGCCGGCAUGGUCCCAGCCUCCUCGCUGGCGCCGGCUGGGCAGCAUUCCCAGGGGACCGUCCCCUCGGUAAUGGCGAAUGGGACCCA, for which the self-cleavage was 0.739.
Regarding GGCCGGCAUGGUCCCAGCCUCCUCGCUGGCGCCGGCUGGGCAGCAUUCCAAGGGGACCGUCCCCUCGGUAAUGGCGAAUGGGACCCA, the self-cleavage amounted to 0.502.
In the case of GGCCGGCAUGGUCCCAGCCUCCUCGCUGGCGCCGGCUGGGCAGCAUUCCGAGGGGACCGUCCCCUCGGUAAUGGCGAAUGGGACCAA, the self-cleavage was 0.712.
For GGCCGGCAUGGUCCCAGCCUCCUCGCUGGCGCCGGCUGGGCAGCAUUCCGAGGGGACCGUCCCCUCGGUAAUGGCGAAUGGGACCGA, the self-cleavage was found to be 0.727.
Turning to GGCCGGCAUGGUCCCAGCCUCCUCGCUGGCGCCGGCUGGGCAGCAUUCCGAAGGGACCGUCCCCUCGGUAAUGGCGAAUGGGACCCA, the self-cleavage amounted to 0.577.
GGCCGGCAUGGUCCCAGCCUCCUCGCUGGCGCCGGCUGGGCAGCAUUCCGACGGGACCGUCCCCUCGGUAAUGGCGAAUGGGACCCA: the self-cleavage came out at 0.796.
Under GGCCGGCAUGGUCCCAGCCUCCUCGCUGGCGCCGGCUGGGCAUCAUUCCGAGGGGACCGUCCGCUCGGUAAUGGCGAAUGGGACCCA stands 0.394.
As for GGCCGGCAUGGUCCCAGCCUCCUCGCUGGCGCCGGCUGGGCAUCAUUCCGAGGGGACCGUCCCCUCGGUAAUGGCGAAUGGGAUCCA, the self-cleavage stood at 0.151.
Turning to GGCCGGCAUGGUCCCAGCCUCCUCGCUGGCGCCGGCUGGGCAGCACUCCGAGGGGACCGUCCCCUCGGUAAUGGCGAAUGGGACCCA, the self-cleavage worked out at 0.443.
In the case of GGCCGGCAUGGUCCCAGCCUCCUCGCUGGCGCCGGCUGGGCAGCAGUCCGAGGGGACCGUCCCCUCGGUAAUGGCGAAUGGGACCCA, the self-cleavage stood at 0.499.
In the case of GGCCGGCAUGGUCCCAGCCUCCUCGCUGGCGCCGGCUGGGCAGCAUUCCGAGGGGACCGUCCCCUCGGUAAUGGCAAAUGGGACCCA, the self-cleavage amounted to 0.391.
Under GGCCGGCAUGGUCCCAGCCUCCUCGCUGGCGCCGGCUGGGCAUCAUUCCGAGGGGACCGUCCCCUCGGUAACGGCGAAUGGGACCCA stands 0.155; under GGCCGGCAUGGUCCCAGCCUCCUCGCUGGCGCCGGCUGGGCAUCAUUCCGAGGGGACCGUCCCCUCGGCAAUGGCGAAUGGGACCCA, 0.494; under GGCCGGCAUGGUCCCAGCCUCCUCGCUGGCGCCGGCUGGGCAUCAUUCCGAGGGGACCGUCACCUCGGUAAUGGCGAAUGGGACCCA, 0.499.
Then GGCCGGCAUGGUCCCAGCCUCCUCGCUGGCGCCGGCUGGGCAGCAUUCCGAGGGGACCGUCCCCGCGGUAAUGGCGAAUGGGACCCA, with 0.575; and GGCCGGCAUGGUCCCAGCCUCCUCGCUGGCGCCGGCUGGGCAUCAAUCCGAGGGGACCGUCCCCUCGGUAAUGGCGAAUGGGACCCA, with 0.653; and GGCCGGCAUGGUCCCAGCCUCCUCGCUGGCGCCGGCUGGGCAUCAUUCCGAGGGGACCGUCCCCUCGGUAAUGGCGAAUGGGACCUA, with 0.563.
As to GGCCGGCAUGGUCCCAGCCUCCUCGCUGGCGCCGGCUGGGCAUCAUUCCGAGGGGACCGUCCCCUCGGUAAUGGCGAAUGGGACCGA, the self-cleavage worked out at 0.325.
Take GGCCGGCAUGGUCCCAGCCUCCUCGCUGGCGCCGGCUGGGCAUCAUUCCGAGGGUACCGUCCCCUCGGUAAUGGCGAAUGGGACCCA: the self-cleavage was 0.619.
Then GGCCGGCAUGGUCCCAGCCUCCUCGCUGGCGCCGGCUGGGCAGCAUUCCGAGGGGACCGUCCCCUCGGUAAUGGCGAAUGGUACCCA, with 0.189; and GGCCGGCAUGGUCCCAGCCUCCUCGCUGGCGCCGGCUGGGCAGCAUUCCGAGGGGACCGUCCCCUCGGUAAUGGCGAAUGGAACCCA, with 0.138.
Turning to GGCCGGCAUGGUCCCAGCCUCCUCGCUGGCGCCGGCUGGGCAUCAUUCCGAGGGGACUGUCCCCUCGGUAAUGGCGAAUGGGACCCA, the self-cleavage was 0.462.
Turning to GGCCGGCAUGGUCCCAGCCUCCUCGCUGGCGCCGGCUGGGCAGCAUCCCGAGGGGACCGUCCCCUCGGUAAUGGCGAAUGGGACCCA, the self-cleavage worked out at 0.748.
On to GGCCGGCAUGGUCCCAGCCUCCUCGCUGGCGCCGGCUGGGCAGCAUUCCGAGGGGACCGUCCCCUCGGUAAUCGCGAAUGGGACCCA, for which the self-cleavage amounted to 0.256.
For GGCCGGCAUGGUCCCAGCCUCCUCGCUGGCGCCGGCUGGGCAGCAUUCCGAGGGGACCGUCCCCUCGGUAAUUGCGAAUGGGACCCA, the self-cleavage turned out to be 0.0755.
For the variant GGCCGGCAUGGUCCCAGCCUCCUCGCUGGCGCCGGCUGGGCAGCAUUCCGAGGGGACCGUCCCCUCGGGAAUGGCGAAUGGGACCCA, the self-cleavage came to 0.867.
With GGCCGGCAUGGUCCCAGCCUCCUCGCUGGCGCCGGCUGGGCAGCAUUCCGAGGGGACCGUCCCCUCGGAAAUGGCGAAUGGGACCCA, the self-cleavage is 0.623.
As for GGCCGGCAUGGUCCCAGCCUCCUCGCUGGCGCCGGCUGGGCAUCAUUCCGAGGGGACCGUCCCCUCGGUCAUGGCGAAUGGGACCCA, the self-cleavage was found to be 0.554.
Regarding GGCCGGCAUGGUCCCAGCCUCCUCGCUGGCGCCGGCUGGGCAUCAUUCCGAGGGGACCGUCCCCUCGGUUAUGGCGAAUGGGACCCA, the self-cleavage is 0.59.
Consider GGCCGGCAUGGUCCCAGCCUCCUCGCUGGCGCCGGCUGGGCAUCAUUCCGAGGGGACCGUCCCCUCGGUGAUGGCGAAUGGGACCCA, for which the self-cleavage stood at 1.05.
Then GGCCGGCAUGGUCCCAGCCUCCUCGCUGGCGCCGGCUGGGCAGCAUUCCGAGGGGACCGUCCCCUCGGUAAUGGCGAAAGGGACCCA, with 0.192.
